From the supplement of paper PMC11865577

Tests used:
Assay in all cases: pull-down binding Z-score (relative to library population); higher = stronger binding
Conditions in all cases: RNA library: Library-2
[1] = system: TO-N3-2 (biotin conjugate)
In short: (§1)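 An RNA library (1 μg) carrying a Cy5 or Cy3 end label was heat-folded in phosphate/NaCl/KCl buffer, then incubated for 60 min at 25 °C with streptavidin beads loaded with 100 pmol of biotin-conjugated small molecule. The beads were washed three times, and bound RNA was released in hot SDS and hybridised to a DNA barcode microarray for 20 h at 55.5 °C. Each binding score was derived by subtracting the signal from beads without compound, averaging the barcoded replicate probes after removing the highest and lowest, and expressing the result as a Z-score relative to the library mean and standard deviation.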

[2] = system: TO-N3 (biotin conjugate)
In short: as §1

[3] = system: TO-3-N3-2 (biotin conjugate)
In short: as §1

[4] = system: TO-3-N3 (biotin conjugate)
In short: as §1

Sequence | pull-down binding Z-score [1] | pull-down binding Z-score [2] | pull-down binding Z-score [3] | pull-down binding Z-score [4]
UAGCGUGCCUUUGUAAGCACAAGCUG | 0.342 | 0.57 | 0.0842 | 0.532
AGGUUGGUAUGCAAAAGUAUUCUACACUCCAGGGACCACCUGGUACUGGUAAGAGUCAUUUUGCUAUUGGCCU | 0.696 | -0.418 | -0.203 | -0.654
GAACCUUGCUCUUCUGGAACAUACGAGGGCAAUUC | -0.153 | 0.239 | -0.0628 | 0.401
GCACGUAGUGUAGCUAGUCAAUCCAUCAUUGCCUACACUAUGUC | 0.486 | 0.227 | 0.0633 | 0.288
GUUCUUUGAGAAC [IAV_invivo_PA_3_Motif_25+IAV_invivo_PA_3_Motif_25] | -0.894 | 0.0597 | -0.317 | 0.296
GCUAGUGGGGGACAACCAAUCACUAAUUGUGUUAAGAUGUUGUGUACACACACUGGU | 0.564 | 1.03 | 0.649 | 0.789
UAUUGAAAUCAAUA | -1.72 | -0.987 | -0.77 | -0.553
CCAGAGAAGAAACUGG | 0.486 | 0.417 | 0.0828 | 0.466
CCUCUGACUAAGGGG [IAV_invivo_M1_M2_7_Motif_4+IAV_invivo_M1_M2_7_Motif_4] | -1.25 | -0.504 | -0.414 | -0.159
AAUAACUUACCUUUUAAGUUGACAUGUGCAACUACUAGACAAGUUGUU | -1.52 | -1.21 | -0.415 | -0.907
CCAUAAUGAAUCUGG [DMSMaPseq_invitro_SARS-CoV-2_Motif_27] | -0.529 | -0.345 | -0.198 | -0.322
GGACCUGAGCGCACCUGUUGUCU [SHAPE_invivo_SARS-CoV-2_Motif_351] | 1.67 | 1.58 | 0.645 | 0.863
CUAUUCAAACAAUUGUUGAGGUUCAACCUCAAUUAGAGAUGGAACUUACACCAGUUGUUCAGACUAUUGAAGUGAAUAGUUUUAG [SHAPE_invivo_SARS-CoV-2_Multi_36_ComplexLevel_1] | -0.461 | -0.421 | -0.292 | -0.49
AUCUUCUGCAGGCUGCUUACGGUUUCGUCCGUGUUGCAGCCGAUCAUCAGCACAUCUAGGUUUUGUCCGGGUGUGACCGAAAGGUAAGAU [DMSMaPseq_invitro_SARS-CoV-2_Multi_2_ComplexLevel_1] | -0.919 | -1.06 | -0.451 | -0.599
GAGAGUGUUCAGACAUUCUU [SHAPE_invivo_SARS-CoV-2_Motif_44] | -0.51 | 0.718 | -0.0995 | 0.913
AUUGGCGACCCUGCUCAAU [DMSMaPseq_invitro_SARS-CoV-2_Motif_311] | -0.232 | 0.0933 | -0.309 | 0.191
GGCCGCAAAUUGCACAAUUUGCCCCC [SHAPE_invivo_SARS-CoV-2_Motif_557] | -0.213 | 0.62 | -0.187 | 0.76
ACAACAACCAUAAAACCAGUUACUUAUAAAUUGGAUGGUGUUGU | -1.37 | -1.03 | -0.38 | -0.686

Sequence | pull-down binding Z-score [1] | pull-down binding Z-score [2] | pull-down binding Z-score [3] | pull-down binding Z-score [4]
AUUGUUCAACUUAGUGAAAUUAGUAUGGACAAU | -0.828 | 0.606 | 0.243 | 0.851
CUGGGCCAUAAGGACCAG [IAV_invivo_NP_5_Motif_20+IAV_invivo_NP_5_Motif_20] | -0.786 | -0.418 | -0.477 | -0.0792
GAUGGCUUUCCUUGAGGAAUCCCAUC [IAV_invivo_PB1_2_Motif_6+IAV_invivo_PB1_2_Motif_6] | -0.986 | -1.41 | -0.719 | -1.04
GACUUCAGUAACUCAGGUUCUGAUGUU | -0.704 | -0.829 | -0.426 | -0.751
UCUGUACCGUCUGCGGUAUGUGGA [DMSMaPseq_invitro_SARS-CoV-2_Motif_240] | 0.111 | -0.694 | -0.475 | -0.562
UAAACACGCUUGUUAAACAACUUAGCUCCAAUUUUGGUGCAAUUUCAAGUGUUUUA [SHAPE_invitro_SARS-CoV-2_Motif_443] | -0.333 | -0.925 | -0.221 | -0.82
GUUAAAAUAUGAC [SHAPE_invivo_SARS-CoV-2_Motif_271] | -0.892 | -0.93 | -0.534 | -0.672
CAGGCCAUCACAAAUGCCACAGCUUGAGUAAACUGUGCAGCCUG [3-way model-2_DENV2] | -0.0801 | -0.464 | -0.224 | -0.433
AACUGCUUUUGGCUUAGUUGCAGAGUGGUU | -0.255 | -0.115 | -0.132 | -0.63
GCUGAGUUGCCAUUCAGC [IAV_invivo_NA_6_Motif_18+IAV_invivo_NA_6_Motif_18] | -0.226 | -0.304 | -0.204 | -0.302
CUUCCGAGUCAUAGGAAACUAUGACAUACAGAUCAACAGGGGCUCGCUUGAGCCCCCCAGCCAGUCGGAGG [mMTR1] | -0.704 | -1.09 | -0.458 | -0.97
UCCAAGAACUUGGA | -1.73 | -1.35 | -0.88 | -0.941
CUCUAUGACAAACUUGUUUCAAGCUUUUUGGAAAUGAAGAGUGAAAAGCAAGUUGAACAAAAGAUCGCUGAG | -0.00802 | -0.314 | -0.291 | -0.302
AGUCUUGUAGUGCGUUGUUCGUUCUAUGAAGACU | -1.06 | -0.932 | -0.844 | -0.733
GGUGUUUUAACU | -0.847 | -0.303 | -0.285 | -0.133
UAACAGUUACACCGGAAGCCAAUAUGGAUCAAGAAUCCUUUGGUGGUGCAUCGUGUUG | -0.452 | -0.9 | -0.365 | -0.833
ACCUCGUCUAUGCUUUAAGGCAUUUUGAUGAAGGU | -0.876 | -0.152 | -0.357 | 0.13
